These results are taken from patent US20240018502A1.

B1: Q38H/I41A/D60bV/F60eR/Y60gW/D96P/ins97aN/F97W/T98G/F99L/C122S/G151N/Q175L/Q192D (enzyme)
chain: VVGGTDADEGEWPWQVSLHALGHGHACGASLISPNWLVSAAHCYIDVRGRRWSDPTQWTAFLGLHDQSQRSAPGVQERRLKRIISHPFFNPWNGLDYDIALLELEKPAEYSSMVRPISLPDASHVFPAGKAIWVTGWGHTQYGGTNALILQKGEIRVINQTTCENLLPQLITPRMMCVGFLSGGVDSCDGDSGGPLSSVEADGRIFQAGVVSWGDGCAQRNKPGVYTRLPLFRDWIKENTGV
B2: Q38H/I41A/D60bT/F60eK/Y60gW/F97T/ins97aE/T98G/F99L/C122S/Q175L/Q192A (enzyme)
chain: B1 chain with V47T, R50K, P91D, W92T, N93E, N146G, D189A
B3: Q38H/I41A/D60bV/F60eI/Y60gW/F97T/ins97aE/T98G/F99L/C122S/G151N/Q175L/Q192D (enzyme)
chain: B1 chain with R50I, P91D, W92T, N93E
B4: Q38H/I41S/D60bT/F60eS/Y60gW/D96K/F97G/ins97aV/T98P/F99L/C122S/T150S/G151H/Q175L/Q192D/Q209L (enzyme)
chain: B1 chain with A26S, V47T, R50S, P91K, W92G, N93V, G94P, T145S, N146H, Q207L
B5: Q38H/I41S/D60bT/F60eS/Y60gW/D96V/F97G/ins97aV/T98P/F99L/C122S/G151H/Q175L/Q192D (enzyme)
chain: B1 chain with A26S, V47T, R50S, P91V, W92G, N93V, G94P, N146H
B6: H40R/I41H/F97D/F99L/C122S/Q175M/Q192G/D217V/K224Y (enzyme)
chain: VVGGTDADEGEWPWQVSLHALGQGRHCGASLISPNWLVSAAHCYIDDRGFRYSDPTQWTAFLGLHDQSQRSAPGVQERRLKRIISHPFFNDDTLDYDIALLELEKPAEYSSMVRPISLPDASHVFPAGKAIWVTGWGHTQYGGTGALILQKGEIRVINQTTCENLLPQMITPRMMCVGFLSGGVDSCGGDSGGPLSSVEADGRIFQAGVVSWGVGCAQRNYPGVYTRLPLFRDWIKENTGV
B7: I41G/F97I/F99L/C122S/G151L/Q175M/Q192S/D217V (enzyme)
chain: B6 chain with R25H, H26G, D92I, G145L, G188S, Y221K
B8: Q38H/I41S/D60bS/ins97aV/F97D/T98P/F99L/M117L/C122S/I136T/Q192G/D217I (enzyme)
chain: VVGGTDADEGEWPWQVSLHALGHGHSCGASLISPNWLVSAAHCYIDSRGFRYSDPTQWTAFLGLHDQSQRSAPGVQERRLKRIISHPFFNDDVPLDYDIALLELEKPAEYSSLVRPISLPDASHVFPAGKATWVTGWGHTQYGGTGALILQKGEIRVINQTTCENLLPQQITPRMMCVGFLSGGVDSCGGDSGGPLSSVEADGRIFQAGVVSWGIGCAQRNKPGVYTRLPLFRDWIKENTGV
B9: Q38H/I41A/D60bV/F60eR/Y60gW/D96I/F97N/T98G/F99L/C122S/G151H/Q175L/Q192D (enzyme)
chain: VVGGTDADEGEWPWQVSLHALGHGHACGASLISPNWLVSAAHCYIDVRGRRWSDPTQWTAFLGLHDQSQRSAPGVQERRLKRIISHPFFNINGLDYDIALLELEKPAEYSSMVRPISLPDASHVFPAGKAIWVTGWGHTQYGGTHALILQKGEIRVINQTTCENLLPQLITPRMMCVGFLSGGVDSCDGDSGGPLSSVEADGRIFQAGVVSWGDGCAQRNKPGVYTRLPLFRDWIKENTGV
B10: Q38H/I41S/D60bT/F60eS/Y60gW/D96I/F97N/T98G/F99L/C122S/G151N/Q175L/Q192D (enzyme)
chain: B9 chain with A26S, V47T, R50S, H145N

Numbering of substitutions follows the chain as printed. Names may count otherwise.

Chain of human complement protein C3 (human) (P01024 23-667, chain 1 of 2): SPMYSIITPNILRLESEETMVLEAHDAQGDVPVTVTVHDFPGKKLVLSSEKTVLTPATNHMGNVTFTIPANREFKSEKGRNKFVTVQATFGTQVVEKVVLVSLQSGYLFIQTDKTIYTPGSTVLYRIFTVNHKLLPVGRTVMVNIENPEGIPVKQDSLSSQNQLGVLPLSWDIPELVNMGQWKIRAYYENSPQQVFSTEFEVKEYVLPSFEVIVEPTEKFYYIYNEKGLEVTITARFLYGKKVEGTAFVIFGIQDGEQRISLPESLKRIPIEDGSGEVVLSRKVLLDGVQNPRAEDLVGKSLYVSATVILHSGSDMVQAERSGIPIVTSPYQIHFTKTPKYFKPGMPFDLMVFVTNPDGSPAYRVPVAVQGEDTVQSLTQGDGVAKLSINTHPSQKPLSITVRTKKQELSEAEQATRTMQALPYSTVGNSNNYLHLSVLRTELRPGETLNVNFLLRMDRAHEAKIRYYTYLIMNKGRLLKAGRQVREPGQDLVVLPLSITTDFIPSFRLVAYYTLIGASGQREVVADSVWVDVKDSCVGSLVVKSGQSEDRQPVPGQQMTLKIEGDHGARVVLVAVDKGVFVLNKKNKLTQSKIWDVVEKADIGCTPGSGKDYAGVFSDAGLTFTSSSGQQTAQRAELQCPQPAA
Chain of human complement protein C3 (human) (P01024 672-1663, chain 2 of 2): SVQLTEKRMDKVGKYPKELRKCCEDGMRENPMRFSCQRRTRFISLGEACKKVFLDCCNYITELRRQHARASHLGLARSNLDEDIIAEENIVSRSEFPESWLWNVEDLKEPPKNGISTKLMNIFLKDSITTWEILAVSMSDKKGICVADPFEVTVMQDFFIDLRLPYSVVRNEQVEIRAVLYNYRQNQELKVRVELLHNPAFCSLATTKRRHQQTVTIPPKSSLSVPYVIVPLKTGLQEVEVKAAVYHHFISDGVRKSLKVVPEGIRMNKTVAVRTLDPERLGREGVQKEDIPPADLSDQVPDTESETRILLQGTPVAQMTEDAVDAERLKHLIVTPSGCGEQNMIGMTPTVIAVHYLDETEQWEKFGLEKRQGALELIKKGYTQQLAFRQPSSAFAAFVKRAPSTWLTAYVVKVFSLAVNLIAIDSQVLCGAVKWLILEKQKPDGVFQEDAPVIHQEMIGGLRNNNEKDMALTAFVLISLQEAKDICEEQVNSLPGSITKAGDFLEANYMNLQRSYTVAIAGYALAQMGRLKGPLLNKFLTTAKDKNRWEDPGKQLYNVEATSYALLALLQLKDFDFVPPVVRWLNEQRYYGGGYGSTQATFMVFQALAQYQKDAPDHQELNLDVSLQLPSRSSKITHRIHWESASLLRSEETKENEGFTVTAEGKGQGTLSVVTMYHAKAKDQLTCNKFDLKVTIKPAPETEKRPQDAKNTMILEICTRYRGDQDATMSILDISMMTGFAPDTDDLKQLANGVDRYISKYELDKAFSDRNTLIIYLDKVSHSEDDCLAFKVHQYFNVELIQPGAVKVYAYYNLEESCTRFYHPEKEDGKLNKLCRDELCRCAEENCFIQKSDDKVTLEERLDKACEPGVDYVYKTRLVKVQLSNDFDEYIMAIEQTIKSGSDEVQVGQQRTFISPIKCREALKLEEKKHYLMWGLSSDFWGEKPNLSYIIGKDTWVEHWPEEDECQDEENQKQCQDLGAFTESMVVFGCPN

This test has as its target human complement protein C3 (human) (UniProt P01024). Put plainly: cell-based or functional assay.
B1 registered an EC50 (nM), cleavage of purified hC3 in vitro of 2.54 nM.

B2 displayed an EC50 (nM), cleavage of purified hC3 in vitro of 2.71 nM.

B3 showed an EC50 (nM), cleavage of purified hC3 in vitro of 2.91 nM.

Molecule B4 returned an EC50 (nM), cleavage of purified hC3 in vitro of 2.88 nM.

With B5, the EC50 (nM), cleavage of purified hC3 in vitro worked out at 2.85 nM.

As for B6, the EC50 (nM), cleavage of purified hC3 in vitro was 2.76 nM.

Turning to B7, the EC50 (nM), cleavage of purified hC3 in vitro was 2.84 nM.

As for B8, the EC50 (nM), cleavage of purified hC3 in vitro worked out at 2.43 nM.

Molecule B9 registered an EC50 (nM), cleavage of purified hC3 in vitro of 2.52 nM.

B10 showed an EC50 (nM), cleavage of purified hC3 in vitro of 3.04 nM.
